{
  "source": "patent US20130209396A1",
  "about": "(ELEVEN BIOTHERAPEUTICS, published 2013)",
  "binders": {"B1": {"name": "P02 (designed binder)", "chain": "APVRSLAFRIWDVNQKTFYLRNNQLVAGYLQGPNVNLEEKIDVSFVQGEESNDKIPVALGIHGGKMCLSCVKSGDETRLQLEAVDPKNYPKKKMEKRFVFNKIEINNKLSFESAACPGWFLCTAMEADQPVSLTNMPDEGVMVTKFYMQFVSS", "notes": "Chimeric IL-1β/IL-1Ra cytokine domain expressed in E. coli; also called P02 domain"}, "B2": {"name": "P04 (designed binder)", "chain": "APVRSLAFRIWDVNQKTFYLRNNQLVAGYLQGPNVNLEEKFSMSFVQGEESNDKIPVALGLKEKNLYLSCVLKDDKPTLQLESVDPKNYPKKKMEKRFVFNKIEINNKLEFESAACPGWFLCTAMEADQPVSLTNMPDEGVMVTKFTMQFVSS", "notes": "Chimeric IL-1β/IL-1Ra cytokine domain expressed in E. coli; Both hexa-histidine tagged and untagged forms were made; also called P04 domain"}, "B3": {"name": "P03 (designed binder)", "chain": "B2 chain with N101I, K102R, I103S, E104D, I105S, N106G, N107P, K108T, L109T, E110S", "notes": "Chimeric IL-1β/IL-1Ra cytokine domain expressed in E. coli; Both hexa-histidine tagged and untagged forms were made; also called P03 domain"}, "B4": {"name": "P05 (designed binder)", "chain": "B2 chain with A7N, F8C, A115Q, C116F, G118N, T147Y"}},
  "key": {"[1]": {"target": "T1, soluble recombinant human IL-1RI (corresponding to the extracellular domain of IL-1RI) (human, UniProt P14778 18-336)", "T1 construct": "extracellular domain; also called interleukin-1 receptor I; immobilized soluble IL-1RI", "T1 sequence (looked up)": "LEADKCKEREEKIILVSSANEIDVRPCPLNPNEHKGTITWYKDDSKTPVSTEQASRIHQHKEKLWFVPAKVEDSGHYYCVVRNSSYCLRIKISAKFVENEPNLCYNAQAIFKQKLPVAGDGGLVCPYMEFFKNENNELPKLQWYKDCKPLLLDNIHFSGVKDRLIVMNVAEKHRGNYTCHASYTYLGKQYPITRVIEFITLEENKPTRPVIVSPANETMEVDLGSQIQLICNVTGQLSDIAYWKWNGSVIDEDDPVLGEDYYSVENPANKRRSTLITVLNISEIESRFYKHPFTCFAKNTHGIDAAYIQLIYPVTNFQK", "experiment": "SPR (Reichert SR7000DC), soluble human IL-1RI; end of range tied to P02 (lowest Kd) by Table 7", "method": "(§1) The binding properties of proteins for soluble recombinant human IL-1RI (corresponding to the extracellular domain of IL-1RI) were evaluated using surface plasmon resonance with a Reichert SR7000DC Dual Channel SPR system. Binding was evaluated in phosphate buffered saline with 0.005% Tween 20. […] Thus, the P01 protein bound to IL-1RI with a greater affinity than did IL-1β under similar conditions.\n(§2) See for example FIGS. 9C and 9D and Table 7 below."}, "[2]": {"target": "T1, soluble recombinant human IL-1RI …", "experiment": "SPR (Reichert SR7000DC), soluble human IL-1RI; end of range tied to P04 by Table 7", "method": "as §1, §2"}, "[3]": {"target": "T1, soluble recombinant human IL-1RI …", "experiment": "SPR (Reichert SR7000DC), soluble human IL-1RI; end of range tied to P03 (highest Kd) by Table 7", "method": "as §1, §2"}, "[4]": {"target": "T2, IL-1RI on HEK-Blue IL-1β responsive cells (UniProt P14778 18-569)", "T2 sequence (looked up)": "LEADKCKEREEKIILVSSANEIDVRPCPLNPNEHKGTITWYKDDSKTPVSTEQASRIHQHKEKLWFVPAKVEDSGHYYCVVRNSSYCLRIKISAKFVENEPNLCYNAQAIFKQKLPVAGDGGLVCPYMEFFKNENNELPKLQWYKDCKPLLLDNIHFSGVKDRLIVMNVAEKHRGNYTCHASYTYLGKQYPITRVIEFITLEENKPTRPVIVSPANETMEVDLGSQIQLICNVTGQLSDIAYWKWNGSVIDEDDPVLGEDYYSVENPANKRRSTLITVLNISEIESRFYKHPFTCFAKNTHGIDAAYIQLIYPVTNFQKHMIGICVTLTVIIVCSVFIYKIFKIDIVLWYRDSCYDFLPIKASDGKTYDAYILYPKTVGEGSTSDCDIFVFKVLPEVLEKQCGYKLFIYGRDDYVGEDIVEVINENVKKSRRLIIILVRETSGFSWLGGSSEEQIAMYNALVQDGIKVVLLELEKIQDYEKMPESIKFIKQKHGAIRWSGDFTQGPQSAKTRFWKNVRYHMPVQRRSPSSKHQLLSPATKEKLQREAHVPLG", "experiment": "cell-based or functional assay"}},
  "note": "Changes are numbered by the printed parent chain.",
  "data": [
    {"binder": "B1", "values": [
      {"measurement": "koff", "setting": "[1]", "result": "2e-05", "unit": "s⁻¹"}
    ]},
    {"binder": "B2", "values": [
      {"measurement": "Kd", "setting": "[2]", "result": 1.7, "unit": "nM"},
      {"measurement": "kon", "setting": "[2]", "result": 30000, "unit": "M⁻¹ s⁻¹"}
    ]},
    {"binder": "B3", "values": [
      {"measurement": "koff", "setting": "[3]", "result": 0.001, "unit": "s⁻¹"}
    ]},
    {"binder": "B4", "values": [
      {"measurement": "IC50 of antagonism of IL-1β activity, SEAP reporter in HEK-Blue IL-1β cells", "setting": "[4]", "result": "< 5", "unit": "ng/mL"}
    ]}
  ]
}
